# Measurements taken from the DeepSol protein solubility set.
# Test: soluble on expression in E. coli; label from the status in PepcDB or PDB records
row,Sequence,soluble on expression in E. coli
1,MLQIEKIVSNKGNDLSLRWNLLKKIDHFQCLTSLTRLNLNDNQIEKLENLETLVNLVFLDVSYNRITKIEGLSELINLEELHLVHNKIITIEGLETNTAMKYLEFGDNRIQKMENLSHLVNLERLFLGANQIRKIEGLDGMAQLKELSLPGNALQIIEGLDTLSGLKSISLAQNGIRKIDGLSGLTNLKSLDLNDNIIEKLENVEQFKGISSLMIRKNKLNCWQDVRQLKKLENLTVLTMEMNPLYSSDYTYRNRVKEILPDVKLLDGFPIFWVQGDPYQPIPEEFYEMGDVYVTSPTFVGHDTGSILAIDCHPSGKKFITCGQKARTSNGLVVVWNAEPVLDKKKASNENVPKLLFQVESQSQSNSCRWSPDGKRFAFGSDDSSVSVWEYVGLINSMGSITGGAQNVERYKECCVLRGHSMEVLTVEWSPNGKYLASGSIDYRIIIYNARKLPDRITVLNDIQLPVKGLSWDPIGKYLASLEGDKKLRFWATDSWQCVKSVTEPFESNIEETMLTRLDWSPDGKYLMTPAAVRSGKPLIKLIQRQTWKSDQFLAGHHKGTTCVRAMPRLIEANLKNGKRMQLTCAAVGSRDKSISIWVFPGTLKPLFVINNIFNHTVMDFAWCGRNLLACSQDGTVKVIHLSESVIGEMISNEAMSDLCYQIYSIRPPRYELTDKEEDESQDSFNLSDLSSSANNASFVTCPEDVLIKRKKLVAAQQSSDIQLTKSMEDNSKENESKNSEKTMMEERNKQIDVRKDGKRRIQPVFCGTTTADPMTSLSSEGKKTVAPPPAKRKALAPAVPAKKGEVDLEDSSDSDDDDEEEEEDMEISDIESVRNKKRKVPATTSQPMLALDLKKPALRPMEPKSLKTQEGTVLMEAPEQQPKLSQHVVDRKGMFVEIDNRWKHGGVETTQIKLIKKKQQTAENEDDMMDGERRVNHECLWMAVLGSPVIIVAANKHNVVLGCGDKCLRVYRTFCGTHIVSLRLDSLPVLIGVTEHAAYALTENGRLSTWNLKLGKAVVTRQPLFDCVEASTDNSLISADVSETGVPLIVFSNGSIFTFNVSLSCWIQAITTNVLGRLTSPISDAQLSCSNGTTNSAGPLVRLLKRMRKQATAPGVAPQVVKAVKESQLEQLLHCAEQLGNPQDYQTMLMLYVETLCEGGSEKKLKNILNDLSRSGAPMQVCGLRRSALYDDVTRMIKLKQPAIAARIVAGVAASTTTKSLF,not soluble
2,MLQSGEWAYTEKLKEHFESPKNVLQGNDTSAFDGVGMEGNLQCGDQMMVAIKVDKESEKITDCQWKTYGCASAIASTSILSEMVKGMTLDQAFNISPKEVAKELGGLPENKIHCSVLGDKALRAAINDYFIRNGMSDRVQKVQARTVCQCMNVTDHDIEEAVLEGARTFYELQEHTKISTVCGQCREDAENELQKYIHLHFGS,soluble
3,MLRDKSVNLDDGDPFTIALFGVDSNAERNANGGGQRSDTIMVLSVNPEKKTTEIVSIPRDTQADIVGKGTTEKINHAYAYGGPDMAVKSLEKLLNVPIDHYATIDMDGMQDMIDTVGGITVTSNATFSYDGYQFTEGERSKMDGKEAMAFIRSRKEDGAGGDFGRQERQQLVIQGLANKLTSVSSITHFNSLMNHVEDNVKTDLSVGELNKVRSNYKDANDNVNRHQLEGQGGIQDDGLYYFVPSENSLNEIETNVKDNLGILEHHHHHH,soluble
4,MLRIVLARSSRAMSSASPASASDSDTSVRKIGKALETYLKHSQQHVAMMEKHRAEFETGRRHLAKMMSLDIHELDQEAIDRAILYLFPSGLTDPNARPVMRPPDEILPKFQRFTFDEEGKPEGSRFFTLSPKIYGLLSDIGVKTHSVMKFYDEHVGSRSVNRSDLEPANLSGSQWVTADKLKKKLSEKFSKELYGQVIIAFEHLASLPGSAIEQKFLMEFREPMTASTGSKLFGPAIPEVHVCAVTNRRYAEVTTRCKDTRATVKVTDAGKGKFDIDGLQLHDFRHLQAREILLAPMIVSQSLGRFDVTATTSCISNTLPEAPNKAPLMRSGGMSALPRAVRHGTALCVAALQPEAIEPLRLSGLLTLDPRKNERSKVNQPGARAKWIWKRR,not soluble
5,MLRRDFLKLLAAATTIAATGPVMAACSRDDNSATSGKAATDTIRIAAIGGPGEGLNINEAMSTATWAAMYAVYESLVIAGDSAPAFQLAKSVEPNKDATMWTVTLRDAPLFSDGSPVTAADVVASLKVVAKNPMRGMTYADVDVDKLKAIDDSTVEIHLTRPRADFVDAVLGVNSLVYKNGDPGTTIGSGPYVVESGDSGQGWKLAANEHFPTDRRISQSLEIQVIADADARLRAVDSGAVDLAMDLPATAARSLKNAQAWIPGPADSKALLFVLNTAVAPFNDAEVRRAVKISLDRKAMVDVALDGAGTVGADIPGFGFKDYPEGISEVRRDLDAARQIFKDKGIKELTLVTADFTPGMNDGADIAAKQLADAGVKVTVEKRDPTTYFADMAALRALPFFASYIVNRSLQSALPFMTGSHAMFNLSGFGTSGDWDKRLAAAQAETNDSQRAALLKKLAVEMQRDGGDVLWGYANEVHGRADGIPDVPVSQSVPVPTTK,not soluble
6,MLRRGLSRPEPRLLSKRYLSSATGGGSAGTTEGGSSETTPLRPRPNALTDEIIRVDHAGELGADRIYAGQMAILGNGPLGKTIGHMWEQEKEHRKQFEQLIQQHRVRPTIMTPIWNVAGFVLGAGTALMGEKAAMACTVAVETVIVEHYNDQLRQIMEAPNPDKELLATITKFRDEEQEHHDTGIDHGAEQAPFYQAMTEVIKFGCKTAIAISKKILEHHHHHH,not soluble
7,MLRRQMSFNGKSDMGILYLVPTPIGNLEDMTFRAIDTLKSVDAIAAEDTRQTKKLCHVYEIETPLVSYHEHNKESSGHKIIEWLKSGKNIALVSDAGLPTISDPGAEIVKDFTDIGGYVVPLPGANAALTALIASGIVPQPFFFYGFLNRQKKEKKKELEALKKRQETIIFYEAPHRLKETLSAMAEILGDREIAVTRELTKKYEEFIRGTISEVIGWANEDQIRGEFCLVVEGSNNEEVDEEEQWWETLTAKEHVEHYISKGATSKEAIKKAAVDRNVPKREVYDAYHIKQ,soluble
8,MLRSIICNMCNLSDESKQFEMTPPSSNLSSLFPTGRAVRNPFGKVYFVVILKGKAMVRIDGKSMLLLERTFLFLPPGHLLLRLSCTQDFLFQYLSFSFDFLSDFPLLLKADISNQVTNAPCLPMSPEDFSLIKMYYHFIYHRYLDAECPSEVIKGMLFSLVLEVCRMYSGRNISVEMSRQDKLVDGFFSLLHKYCTQERMAAFYASRLCISDKYLMRSIKKQTGQTFHYWMADFILREAKLMLRSTDLSVTEIADKLSFPNSSSFARFFRKYTGFSPVQFRNEA,not soluble
9,MLRTAGRDGLCRLSTYLEELEAVELKKFKLYLGTATELGEGKIPWGSMEKAGPLEMAQLLITHFGPEEAWRLALSTFERINRKDLWERGQREDLVRDTPPGGPSSLGNQSTCLLEVSLVTPRKDPQETYRDYVRRKFRLMEDRNARLGECVNLSHRYTRLLLVKEHSNPMQVQQQLLDTGRGHARTVGHQASPIKIETLFEPDEERPEPPRTVVMQGAAGIGKSMLAHKVMLDWADGKLFQGRFDYLFYINCREMNQSATECSMQDLIFSCWPEPSAPLQELIRVPERLLFIIDGFDELKPSFHDPQGPWCLCWEEKRPTELLLNSLIRKKLLPELSLLITTRPTALEKLHRLLEHPRHVEILGFSEAERKEYFYKYFHNAEQAGQVFNYVRDNEPLFTMCFVPLVCWVVCTCLQQQLEGGGLLRQTSRTTTAVYMLYLLSLMQPKPGAPRLQPPPNQRGLCSLAADGLWNQKILFEEQDLRKHGLDGEDVSAFLNMNIFQKDINCERYYSFIHLSFQEFFAAMYYILDEGEGGAGPDQDVTRLLTEYAFSERSFLALTSRFLFGLLNEETRSHLEKSLCWKVSPHIKMDLLQWIQSKAQSDGSTLQQGSLEFFSCLYEIQEEEFIQQALSHFQVIVVSNIASKMEHMVSSFCLKRCRSAQVLHLYGATYSADGEDRARCSAGAHTLLVQLPERTVLLDAYSEHLAAALCTNPNLIELSLYRNALGSRGVKLLCQGLRHPNCKLQNLRLKRCRISSSACEDLSAALIANKNLTRMDLSGNGVGFPGMMLLCEGLRHPQCRLQMIQLRKCQLESGACQEMASVLGTNPHLVELDLTGNALEDLGLRLLCQGLRHPVCRLRTLWLKICRLTAAACDELASTLSVNQSLRELDLSLNELGDLGVLLLCEGLRHPTCKLQTLRLGICRLGSAACEGLSVVLQANHNLRELDLSFNDLGDWGLWLLAEGLQHPACRLQKLWLDSCGLTAKACENLYFTLGINQTLTDLYLTNNALGDTGVRLLCKRLSHPGCKLRVLWLFGMDLNKMTHSRLAALRVTKPYLDIGC,soluble
10,MLRTICKQHTALPDKSIRKLEKIAEGLTVLSKLLKADIFIDCPTGINDAAIVVAEANPETGSSYTQSVVGQYAYRKNEPAVLRTLETGLPSRDYKALTQENTLVRQNVVPIKNEKEEVIGVLIVEEGSNDTGLNKELNFLHDATNELLRSSMEMTKEQKIIDYINDGIIIFNEKGILIYANSKAKNIYKKIGYKHNILGTKFSNIVLNNIAFKDVLDGIIPGSSDIHIAKMDLNIHYYLIKESKNVKNVVLFIKDLTEIKEKEKELILKSVAIKEIHHRVKNNLQTIASLLRIQARKTEDEAVRQAFNESINRILSIAVTHEILAQNGLDDLKIKEMFSKILKNSIRASIGENLDLKTSISGDDFKINSDKSTSIALIANELVQNSITHGFKGMTSGKIDITVKQGKIKSKVTIADNGVGFKSKDFKNESLGLQIVKSLVKEKLFGTIDIKSTKNGTIIVFDFEN,not soluble
11,MLSALLIRNIRNASKLASVAGPNSDRIVNVKWSDGKTGVFPLIWLRDTSPDPSTYTISPAMTARKLTMLEFDVEQNARKLWIDEDANCLKIEWESGVLSEFPSEWLKIRNPSDQEARRRRRKVYLFPEQTWGKAEIEGKLKKFSHEEFMKNEQVVHDFLQAVCIDGIAVLKGAPQGVRGAVEAIGDRIGMIKRTHFGLVFEVSLKADASNMAYASNGGLPFHTDFPSLSHPPQLQMLHMLQSAEEGGHSLFVDGFHVAEQLRVEKPEIFKILTTQSMEYIEEGYDVHEINGKTIRFDYDMCARHKVIRLNDDGKVNKIQFGNAMRSWFYDCEPSKVQDVYRAMKTFTEYCYQPRNMLKFRLEDGDTVLWANQRLLHTRDGFRNAPEKARTLTGCYFDWDIVKSRVRFLRDKLSLEQNQPSA,not soluble
12,MLSETELRALKKLSTTTSRVVGDSTLALPSNVKLSKGEVEKIAVTKKEMFDELAQCNLPTIELITREHTFNGDVIRFAAWLFLMNGQKLMIANNVAVRMGMQYATNLAGNNVKITYVTSNNVVKLGHIAAGVLANPYSNKGSGLFITYEHNLISNQIETGKVCVLFITSLSTTASSTNSFAYSACSVPIEDWDFNMIKLTAETSCASLTAMTNLVNSLVPGERTRPVGLYVDIPGVTVTTSASSGSLPLTTIPAVTPLIFSAYTKQVEEVGVINTLYALSYLP,soluble
13,MLSKIELMLLRSLETGKTYTPEEAAELSGLSKDAVLKAAYMLQERGYVRVIENVRTHYSLTEEGERYLKEGLPEEKLYSLVKSGVNSMDELRKRMGREFQIALGWLRRKGAVEVEGDKVVPKREPSFDERA,soluble
14,MLSKPMELLRPSKGMINVHPIQRGGILTEEARKVLLEWGDGYSMCDICLEGRVDLLDKPPVKRFKEEVAEFLGMDEVRFTAGARHAKFVAMSGFKGALVVDSLAHYTTYIAAELNGLRVYEVPNTGYPEFRIEAESYTDVFEKVKEETGDYPAVALLTHADYKYGNLADAKKVAEICRDYGIPLILNTAYTSGIMEVSGRETGCDFIVASGHKSWAATAPIGILATTFEFAERVFRVSEVRGNWSGRAFTKKEVALFGCSPVYGLPLVTLMASFPVVKERVKRWKEEVEKARWFVEEMEKIEGVMLLGERPKNHTLMNFETPSFNLIAKKHRRKGYFLYHELKERGIFGVQPGMTRNVKLNVYGLSWEEVERVAEAFKEIAEKYGLEVED,not soluble
15,MLSLATFFITMTTHRKPSQEQGFLNGQFLLAMPGMSDERFARSVVYICAHSDEGAMGFIINQLQPVQFPDLLRQIGVIGEEDLIILPDRAQHMVVRNGGPVDRTRGFVLHSDDYMVDSTMPVSDDVCLTATVDILRAIYGGGGPERALMALGYSGWAPGQLEMEVAENGWLTCDAPLDMLFDSDIEGKYSRLMLHMGIDMSRLVSDAGHAAADPLEHHHHHH,not soluble
